Test results published in US20150219635A1 (UCB, published 2015).

Key:
[1] = molecular target: T1, Fcε3-4 (sub-fragment of IgE-Fc lacking the Cε2 domains) (human, UniProt P01854-1 209-428, limits assumed); experiment: stopped-flow tryptophan fluorescence, Fab in excess over Fcε3-4, two-step binding; column koff
T1 construct: domain: Fcε3-4 (Cε3-Cε4); Production and any glycosylation site mutations not described
Experimental: (§1) Experiments were carried out using a Chirascan Plus (Applied Photophysics Ltd) with a stopped-flow attachment at 20° C. in PBS buffer pH 7.4 and with pseudo-first order protein concentrations varied as required. Fluorescence was excited at 280 nm (1 nm slit width) and emitted fluorescence above 305 nm detected with a long-band pass. 6-10 runs were averaged for each experiment. Data were collected and analyzed using supplied software according to the manufacturer's instructions. Experimental transients were fitted either to single-exponential (Eq.1; [IgE-Fc] or [Fcε3-4]>[Fab] and only Fab¹ binding observable) or double-exponential (Eq.2; [Fab]>[IgE-Fc] or [Fcε3-4] and binding of both Fab¹ and Fab² observable) equations: […]
(§2) where F is the observed fluorescence, ΔFₙ is the fluorescence amplitude change for the nth transient, kobsn is the pseudo-first order rate constant for the nth step and Fₑ is the end-point fluorescence. The bimolecular association rate constants for Fab¹ (k₊₁) and Fab² (k₊₂) binding were determined by fitting the linear concentration dependences of kobs1 and kobs2 to Eq. 3: […]

[2] = molecular target: T1, Fcε3-4 (sub-fragment of IgE-Fc lacking …); experiment: stopped-flow tryptophan fluorescence, Fcε3-4 in excess over Fab (1:1 complex)
Experimental: as §1, §2

[3] = molecular target: T1, Fcε3-4 (sub-fragment of IgE-Fc lacking …); experiment: ITC, Fab titrated into Fcε3-4, sequential binding model; first Fab
Experimental: (§3) Experiments were carried out using a Microcal iTC200 calorimeter (GE Healthcare) at 20° C. in PBS buffer pH 7.4. Depending on the final ratio required, 25-30 μM of protein was used in the calorimeter cell and 10-20 fold higher concentrations were used in the syringe. The number and volume of injections were varied as appropriate. Heats of dilution were subtracted from the data before analysis. […] Analyses were carried out using MicroCal Origin, using a 1:1 binding model when IgE-Fc or Fcε3-4 was titrated into Fab, or a sequential 1:1 binding model when Fab was titrated into IgE-Fc or Fcε3-4.
(§4) One way to establish experimentally that IgE-Fc adopts an […] as it flips between two bent conformations, is to determine the number of Fab binding sites that are available for binding: if rigidly and exclusively bent, only one site will initially be accessible, but if it can flip, then two sites are accessible. We therefore studied the interaction between Fab and IgE-Fc by isothermal titration calorimetry (ITC) and compared with the binding to Fcε3-4 which, lacking the Cε2 domains, always has two accessible sites.

[4] = molecular target: T1, Fcε3-4 (sub-fragment of IgE-Fc lacking …); experiment: ITC, Fab titrated into Fcε3-4, sequential binding model; second Fab
Experimental: as §3, §4

[5] = molecular target: T1, Fcε3-4 (sub-fragment of IgE-Fc lacking …); experiment: stopped-flow tryptophan fluorescence, Fab in excess over Fcε3-4, two-step binding; column kon2
Experimental: as §1, §2

[6] = molecular target: T1, Fcε3-4 (sub-fragment of IgE-Fc lacking …); experiment: ITC, Fcε3-4 titrated into Fab, 1:1 binding model
Experimental: as §3, §4

[7] = molecular target: T1, Fcε3-4 (sub-fragment of IgE-Fc lacking …); experiment: stopped-flow tryptophan fluorescence, Fab in excess over Fcε3-4, two-step binding; column kon
Experimental: as §1, §2

T1 sequence (P01854 other isoform, or with tags, fused parts or gaps limits assumed): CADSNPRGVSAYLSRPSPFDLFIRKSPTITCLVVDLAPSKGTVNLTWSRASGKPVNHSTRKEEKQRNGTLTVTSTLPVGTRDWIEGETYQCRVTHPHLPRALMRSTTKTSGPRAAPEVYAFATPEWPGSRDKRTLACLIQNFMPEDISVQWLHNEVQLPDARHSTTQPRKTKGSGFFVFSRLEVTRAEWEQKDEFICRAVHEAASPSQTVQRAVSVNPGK

koff [1]: 0.95 s⁻¹
kon [2]: 1e+06 M⁻¹ s⁻¹
Kd [3]: 34 nM
Kd [4]: 980 nM
kon [5]: 370000 M⁻¹ s⁻¹
Kd [6]: 90 nM
kon [7]: 1e+06 M⁻¹ s⁻¹
B1: Fab7 (anti-human IgE Fab, human IgG1 Fab format) (Fab, V domains shown)
VH: QVQLQQSGPGLVKPSQTLSLTCGISGDSVSSNSAAWNWLRQSPSRGLEWLGRTYYRSKWYNDYAVSMKSRITINPDTSRNQFSLQLNSVTPEDTAVYYCARDGEISYDYYYYGMDVWGRGTLVTVSS
VL: QSVLTQPPSASGTPGQRVTISCSGSSSNIGNNGVNWYQQVPGKPPKLLIYYDDLLPSGVSDRFSGSKSGTSASLAISGLQSEDEADYYCEAWDDSLDGVVFGGGTKLTVLG
notes: Expressed transiently in CHO cells; also called anti-IgE Fab; Fab^1
